Assay [1] concerns the target T1, Cynomolgus monkey CD3D & CD3E heterodimer protein (cynomolgus monkey, UniProt Q95LI5 22-117; Q95LI8 22-105).
T1 construct: same catalogue number; also called monkey CD3 protein (Acro biosystems, Cat #CDD-C52W4)
Description: BLI (ForteBio Octet RED96), antibody on AHC sensor, analyte 100-3.13 nM, 1:1 model. The source says: In this experiment, the binding affinity of the bispecific antibody for the human CD3 protein (Cat #CT038-H2508H, Sinobiological), cynomolgus monkey CD3 protein (Cat #CDD-C52W4, Acrobiosystems), human MUC16 protein (full-length human MUC16, the membrane-proximal end of the extracellular region of MUC16 (Table 26)), and cynomolgus monkey MUC16 protein (full-length cynomolgus monkey MUC16, the membrane-proximal end of the extracellular region of MUC16 (Table 26)) was detected using ForteBio Octet RED96 according to the manufacturer's instructions.
Briefly, an AHC sensor (ForteBio, Cat #18-5060) was placed in a running buffer (1×PBS, Hyclone, Cat #SH30256.01, containing 0.02% Tween 20, pH 7.0) and pre-equilibrated at room temperature for 10 min. […] The experimental data were fitted and calculated using a Fortebio Data Analysis software 1:1 binding model.

The target in assay [2] is T2, Human MUC16-His (human).
T2 construct: The entry includes the C-terminal 6xHis tag; also called membrane-proximal end of the extracellular region of the human MUC16 protein; Human MUC16 protein
T2 chain: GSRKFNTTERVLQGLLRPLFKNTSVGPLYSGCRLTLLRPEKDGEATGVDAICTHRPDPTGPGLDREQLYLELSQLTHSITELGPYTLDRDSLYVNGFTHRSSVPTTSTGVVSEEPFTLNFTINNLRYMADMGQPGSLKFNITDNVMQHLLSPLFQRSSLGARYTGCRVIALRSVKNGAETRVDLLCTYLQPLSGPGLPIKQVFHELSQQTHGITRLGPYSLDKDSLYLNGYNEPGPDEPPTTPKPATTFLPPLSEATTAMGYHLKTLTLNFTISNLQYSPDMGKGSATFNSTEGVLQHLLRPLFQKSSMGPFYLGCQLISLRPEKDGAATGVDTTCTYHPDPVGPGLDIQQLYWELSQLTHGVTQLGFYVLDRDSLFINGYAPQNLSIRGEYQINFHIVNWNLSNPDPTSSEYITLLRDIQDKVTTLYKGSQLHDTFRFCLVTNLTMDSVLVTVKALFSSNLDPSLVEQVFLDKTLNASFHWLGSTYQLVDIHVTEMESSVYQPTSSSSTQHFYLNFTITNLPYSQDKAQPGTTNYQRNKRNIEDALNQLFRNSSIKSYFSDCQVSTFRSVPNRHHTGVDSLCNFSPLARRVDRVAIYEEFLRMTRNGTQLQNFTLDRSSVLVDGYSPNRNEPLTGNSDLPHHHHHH
Kind of assay: BLI (ForteBio Octet RED96), antibody on AHC sensor, 50 nM antigen, 1:1 model. From the text:
(§1) The binding affinity of the anti-MUC-16 antibodies for the membrane-proximal end of the extracellular region of the human MUC16 protein (human MUC16-His, Table 26) and the membrane-proximal end of the extracellular region of the rhesus monkey MUC16 protein (rhesus monkey MUC16-His, Table 26) was detected by ForteBio Octet RED96, respectively. According to the manufacturer's instructions, an AHC sensor (ForteBio, Cat #18-5060) was placed in a running buffer (lx PBS, Hyclone, Cat #SH30256.01, containing 0.02% Tween 20, pH 7.0) and pre-equilibrated at room temperature for 10 min. In a 96-well plate, the kinetic assay was performed according to the following steps: a) equilibrating the baseline for 100 s with the running buffer; b) diluting the anti-MUC-16 antibodies with the running buffer to 5 μg/mL, immobilizing for 200 s, and stopping; c) equilibrating the baseline for 300 s with the running buffer; and d) diluting the human or rhesus monkey MUC16 protein with the running buffer to 50 nM, binding for 200 s, and dissociating for 600 s. The experimental data were fitted and calculated using a Fortebio Data Analysis software 1:1 binding model.
Background: Biolayer interferometry detects binding as a change in optical thickness at a sensor tip.

Assay [3] addresses T3, Rhesus monkey MUC16-His (rhesus monkey).
T3 construct: The entry includes the C-terminal 6xHis tag; also called membrane-proximal end of the extracellular region of the rhesus monkey MUC16 protein
T3 chain: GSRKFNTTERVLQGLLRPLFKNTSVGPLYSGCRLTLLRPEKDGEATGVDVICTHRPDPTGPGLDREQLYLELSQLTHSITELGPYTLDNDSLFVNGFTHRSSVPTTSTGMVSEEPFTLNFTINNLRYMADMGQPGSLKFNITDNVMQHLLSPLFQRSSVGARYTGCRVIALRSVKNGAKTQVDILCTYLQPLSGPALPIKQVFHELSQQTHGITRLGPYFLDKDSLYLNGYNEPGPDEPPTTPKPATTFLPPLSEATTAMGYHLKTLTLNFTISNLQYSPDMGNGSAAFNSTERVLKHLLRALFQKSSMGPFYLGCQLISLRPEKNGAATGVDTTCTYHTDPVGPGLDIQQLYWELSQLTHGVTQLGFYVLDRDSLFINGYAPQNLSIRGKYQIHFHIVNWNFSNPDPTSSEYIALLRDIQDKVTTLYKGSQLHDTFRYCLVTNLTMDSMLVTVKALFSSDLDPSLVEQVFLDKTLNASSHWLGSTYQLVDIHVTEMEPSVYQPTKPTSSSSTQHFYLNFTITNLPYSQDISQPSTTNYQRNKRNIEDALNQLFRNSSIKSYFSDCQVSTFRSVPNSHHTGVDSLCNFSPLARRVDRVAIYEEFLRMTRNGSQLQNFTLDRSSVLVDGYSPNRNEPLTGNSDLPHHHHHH
Described as above.
Source text: as §1

Usually Kd stands for the concentration at which binding is half-saturated. For orientation: koff means a measure of how fast the partners let go of each other. One may read the kon as a measure of how fast the partners come together.

T1 sequence (Q95LI5 22-117 limits assumed, chain 1 of 2): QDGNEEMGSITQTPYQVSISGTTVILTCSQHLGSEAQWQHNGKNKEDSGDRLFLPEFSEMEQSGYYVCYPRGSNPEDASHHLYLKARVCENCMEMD
T1 sequence (Q95LI8 22-105 limits assumed, chain 2 of 2): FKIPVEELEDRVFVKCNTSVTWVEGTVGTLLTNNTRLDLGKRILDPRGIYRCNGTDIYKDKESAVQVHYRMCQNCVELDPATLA

B1: anti-CD3/MUC16 bispecific antibody MCH7-23L2-MCH7 (bispecific antibody, human IgG1, kappa, L234A L235A)
heavy 1: QVQLVQSGAEVKKPGASVKVSCKASGYTFTDYNIHWVRQAPGQGLEWMGYIYPYNGVSDYNQNFKSRVTMTTDTSTSTAYMELRSLRSDDTAVYYCARWDFGSGYYFDYWGQGTLVTVSSASTKGPSVFPLAPSSKSTSGGTAALGCLVKDYFPEPVTVSWNSGALTSGVHTFPAVLQSSGLYSLSSVVTVPSSSLGTQTYICNVNHKPSNTKVDKKVEPKSCEVQLVESGGGLVQPGGSLKLSCAASGFTFSTYAMNWVRQAPGKGLEWVGRIRSKYNNYATYYADSVKDRFTISRDDSKNTLYLQMNSLKTEDTAVYYCTRHGNFGNSYVSWFAYWGQGTTVTVSSGGGGSGGGGSGGGGSQAVVTQEPSLTVSPGGTVTLTCRSSTGAVTTSNYANWVQQKPGQAPRGLIGGTNKRAPGVPARFSGSLLGGKAALTLSGAQPEDEAEYFCALWYSNLWVFGGGTKLTVLGEPKSSDKTHTCPPCPAPEAAGGPSVFLFPPKPKDTLMISRTPEVTCVVVAVSHEDPEVKFNWYVDGVEVHNAKTKPREEQYNSTYRVVSVLTVLHQDWLNGKEYKCKVSNKALAAPIEKTISKAKGQPREPQVCTLPPSRDELTKNQVSLSCAVKGFYPSDIAVEWESNGQPENNYKTTPPVLDSDGSFFLVSKLTVDKSRWQQGNVFSCSVMHEALHNHYTQKSLSLSPGK
heavy 2: not shown
light: EIVLTQSPATLSLSPGERATLSCRASSSVIYMSWYQQKPGQAPRLLIYGTSTLASGIPARFSGSGSGTDFTLTISSLEPEDFAVYYCQQWSSNPFTFGQGTKLEIKRTVAAPSVFIFPPSDEQLKSGTASVVCLLNNFYPREAKVQWKVDNALQSGNSQESVTEQDSKDSTYSLSSTLTLSKADYEKHKVYACEVTHQGLSSPVTKSFNRGEC
notes: MCH7-23L2ScFv-Hole (VH-CH1-scFv-Fc) + MCH7-KIH-Knob + two light chains MCL4 LC
Consider B1, for which, in assay [1], the dissociation constant (Kd) is 30.4 nM, the off-rate (koff) was 0.00378 s⁻¹ and the kon is 124000 M⁻¹ s⁻¹.

B2: anti-MUC16 antibody 776.1(C33S) (antibody, human IgG1, kappa, L234A L235A, V domains shown)
VH: EVQLQQSGPELVKPGASVKISCKASGYTFTDYNIHWVKQSHGKILEWIGYIYPYNGVSDYNQNFKSKATLIVDNSSNTAYMELRSLTSEDSAVYYCARWDFGSGYYFDYWGQGTTLTVSS
VL: QIVLSQSPAILFASPGETVTMTCRASSSVIYMSWNQQKPGSSPKPWIYGTSTLASGVPTRFSGSGSGTSYSLTISRVEAEDAATYYCQQWSSNPFTFGSGTKLEIKR
With B2, in assay [2], the equilibrium dissociation constant (Kd) amounted to 0.921 nM, the off-rate (koff) turned out to be 0.000245 s⁻¹ and the association rate constant (kon) turned out to be 266000 M⁻¹ s⁻¹. In assay [3], this molecule showed a Kd of 1.03 nM, a koff of 0.000826 s⁻¹ and a kon of 803000 M⁻¹ s⁻¹.

These data come from patent US20250092135A1 (NANJING LEADS BIOLABS, published 2025).
